Values quoted from earlier work, collected in patent US20200069786A1, “COMPOSITION AND PROCESS FOR PREPARING VACCINE” (TREOS BIO ZRT., priority 2018, published 2020).
Read-outs that look alike come from different tables or passages of the source.

Test system: TSA
Details: for TSA Expression Rate (ER): BREAST
[1] = TSA expression rate in MELANOMA
[2] = TSA expression rate in PROSTATE cancer

| Molecule | Expression Rate (ER) % (TSA expression rate in CRC) [%] | Expression Rate (ER) % [2] [%] | also measured |
| --- | --- | --- | --- |
| BAGE-2 (protein, UniProt Q86Y30 18-109, looked up) B melanoma antigen 2: RLMKEESPVVSWRLEPEDGTALDVHFVSTLEPLSNAVKRNVPRCIIILVLQEPTAFRISVTSSCFVQNTLTKLLKDRRKMQTVQCATARETS | – | – | Expression Rate (ER) % [1]: 23% |
| PAGE5 (protein, UniProt Q96GU1 1-130, looked up) P antigen family member 5: MQAPWAGNRGWAGTREEVRDMSEHVTRSQSSERGNDQESSQPVGPVIVQQPTEEKRQEEEPPTDNQGIAPSGEIKNEGAPAVQGTDVEAFQQELALLKIEDAPGDGPDVREGTLPTFDPTKVLEAGEGQL | 11 | – | Expression Rate (ER) % (TSA expression rate in Kidney): 44%; Expression Rate (ER) % [1]: 22% |
| XAGE-2 (protein, UniProt Q96GT9 1-111, looked up) X antigen family member 2: MSWRGRSTYRPRPRRSLQPPELIGAMLEPTDEEPKEEKPPTKSRNPTPDQKREDDQGAAEIQVPDLEADLQELCQTKTGDGCEGGTDVKGKILPKAEHFKMPEAGEGKSQV | – | – | Expression Rate (ER) % (TSA expression rate in HEAD and NECK): 6%; Expression Rate (ER) % [1]: 14%; Expression Rate (ER) % (TSA expression rate in PEDIATRIC): 14% |
| BAGE-3 (protein, UniProt Q86Y29 18-109, looked up) B melanoma antigen 3: RLMKEESPVVSWRLEPEDGTALDVHFVSTLEPLSNAVKRNVPRCIIILVLQEPTPFRISVTSSCFVQNTLTKLLKDRRKMQTVQCATAQETS | – | – | Expression Rate (ER) % [1]: 14% |
| TSP50 (protein, UniProt Q9UI38 40-385, looked up) Probable threonine protease …: AGEAPGALSTADPADQSVQCVPKATCPSSRPRLLWQTPTTQTLPSTTMETQFPVSEGKVDPYRSCGFSYEQDPTLRDPEAVARRWPWMVSVRANGTHICAGTIIASQWVLTVAHCLIWRDVIYSVRVGSPWIDQMTQTASDVPVLQVIMHSRYRAQRFWSWVGQANDIGLLKLKQELKYSNYVRPICLPGTDYVLKDHSRCTVTGWGLSKADGMWPQFRTIQEKEVIILNNKECDNFYHNFTKIPTLVQIIKSQMMCAEDTHREKFCYELTGEPLVCSMEGTWYLVGLVSWGAGCQKSEAPPIYLQVSSYQHWIWDCLNGQALALPAPSRTLLLALPLPLSLLAAL | 89 | – | Expression Rate (ER) % (TSA expression rate in GASTRIC cancer): 57% |
| PAGE4 (protein, UniProt O60829 1-102, looked up) P antigen family member 4: MSARVRSRSRGRGDGQEAPDVVAFVAPGESQQEEPPTDNQDIEPGQEREGTPPIEERKVEGDCQEMDLEKTRSERGDGSDVKEKTPPNPKHAKTKEAGDGQP | 33 | 100 | – |
| SPATA19 (protein, UniProt Q7Z5L4 25-167, looked up) Spermatogenesis-associated …: SSDIDVVESEAVSVLHHWLKKTEEEASRGIKEKLSINHPSQGVREKMSTDSPPTHGQDIHVTRDVVKHHLSKSDLLANQSQEVLEERTRIQFIRWSHTRIFQVPSEMTEDIMRDRIEQVRRSISRLTDVSAQDFSMRPSSSDC | – | 88 | – |
| NR6A1 (protein, UniProt Q15406 1-480, looked up) Nuclear receptor subfamily 6 …: MERDEPPPSGGGGGGGSAGFLEPPAALPPPPRNGFCQDELAELDPGTISVSDDRAEQRTCLICGDRATGLHYGIISCEGCKGFFKRSICNKRVYRCSRDKNCVMSRKQRNRCQYCRLLKCLQMGMNRKAIREDGMPGGRNKSIGPVQISEEEIERIMSGQEFEEEANHWSNHGDSDHSSPGNRASESNQPSPGSTLSSSRSVELNGFMAFREQYMGMSVPPHYQYIPHLFSYSGHSPLLPQQARSLDPQSYSLIHQLLSAEDLEPLGTPMLIEDGYAVTQAELFALLCRLADELLFRQIAWIKKLPFFCELSIKDYTCLLSSTWQELILLSSLTVYSKQIFGELADVTAKYSPSDEELHRFSDEGMEVIERLIYLYHKFHQLKVSNEEYACMKAINFLNQDIRGLTSASQLEQLNKRYWYICQDFTEYKYTHQPNRFPDLMMCLPEIRYIAGKMVNVPLEQLPLLFKVVLHSCKTSVGKE | – | 25 | – |
| ODF2 (protein, UniProt Q5BJF6 1-829, looked up) Outer dense fiber protein 2: MSASSSGGSPRFPSCGKNGVTSLTQKKVLRAPCGAPSVTVTKSHKRGMKGDTVNVRRSVRVKTKVPWMPPGKSSARPVGCKWENPPHCLEITPPSSEKLVSVMRLSDLSTEDDDSGHCKMNRYDKKIDSLMNAVGCLKSEVKMQKGERQMAKRFLEERKEELEEVAHELAETEHENTVLRHNIERMKEEKDFTILQKKHLQQEKECLMSKLVEAEMDGAAAAKQVMALKDTIGKLKTEKQMTCTDINTLTRQKELLLQKLSTFEETNRTLRDLLREQHCKEDSERLMEQQGALLKRLAEADSEKARLLLLLQDKDKEVEELLQEIQCEKAQAKTASELSKSMESMRGHLQAQLRSKEAENSRLCMQIKNLERSGNQHKAEVEAIMEQLKELKQKGDRDKESLKKAIRAQKERAEKSEEYAEQLHVQLADKDLYVAEALSTLESWRSRYNQVVKEKGDLELEIIVLNDRVTDLVNQQQTLEEKMREDRDSLVERLHRQTAEYSAFKLENERLKASFAPMEDKLNQAHLEVQQLKASVKNYEGMIDNYKSQVMKTRLEADEVAAQLERCDKENKILKDEMNKEIEAARRQFQSQLADLQQLPDILKITEAKLAECQDQLQGYERKNIDLTAIISDLRSRIEHQGDKLEMAREKHQASQKENKQLSLKVDELERKLEATSAQNIEFLQVIAKREEAIHQSQLRLEEKTRECGTLARQLESAIEDARRQVEQTKEHALSKERAAQNKILDLETQLSRTKTELSQLRRSRDDADRRYQSRLQDLKDRLEQSESTNRSMQNYVQFLKSSYANVFGDGPYSTFLTSSPIRSRSPPA | – | 10 | – |
| ODF1 (protein, UniProt Q14990 1-250, looked up) Outer dense fiber protein 1: MAALSCLLDSVRRDIKKVDRELRQLRCIDEFSTRCLCDLYMHPYCCCDLHPYPYCLCYSKRSRSCGLCDLYPCCLCDYKLYCLRPSLRSLERKAIRAIEDEKRELAKLRRTTNRILASSCCSSNILGSVNVCGFEPDQVKVRVKDGKVCVSAERENRYDCLGSKKYSYMNICKEFSLPPCVDEKDVTYSYGLGSCVKIESPCYPCTSPCSPCSPCSPCNPCSPCNPCSPYDPCNPCYPCGSRFSCRKMIL | – | 10 | – |
| PRSS55 (protein, UniProt Q6UWB4 19-352, looked up) Serine protease 55: GPRTPLPEAGVAILGRARGAHRPQPPHPPSPVSECGDRSIFEGRTRYSRITGGMEAEVGEFPWQVSIQARSEPFCGGSILNKWWILTAAHCLYSEELFPEELSVVLGTNDLTSPSMEIKEVASIILHKDFKRANMDNDIALLLLASPIKLDDLKVPICLPTQPGPATWRECWVAGWGQTNAADKNSVKTDLMKAPMVIMDWEECSKMFPKLTKNMLCAGYKNESYDACKGDSGGPLVCTPEPGEKWYQVGIISWGKSCGEKNTPGIYTSLVNYNLWIEKVTQLEGRPFNAEKRRTSVKQKPMGSPVSGVPEPGSPRSWLLLCPLSHVLFRAILY | – | 1 | – |
| ODF3 (protein, UniProt Q96PU9 1-254, looked up) Ciliary microtubule …: MTEEVWMGTWRPHRPRGPIMALYSSPGPKYLIPPTTGFMKHTPTKLRAPAYSFRGAPMLLAENCSPGPRYNVNPKILRTGKDLGPAYSILGRYQTKTMLTPGPGDYFPEKSTKYVFDSAPSHSISARTKAFRVDSTPGPAAYMLPMVMGPNTVGKASQPSFSIKGRSKLGGFSDDLHKTPGPAAYRQTDVRVTKFKAPQYTMAARVEPPGDKTLKPGPGAHSPEKVTLTKPCAPVVTFGIKHSDYMTPLLVDVE | – | 0 | TSA Expression Rate (ER): 0% |
| MCAK (protein, UniProt Q99661 2-725, looked up) Kinesin-like protein KIF2C: AMDSSLQARLFPGLAIKIQRSNGLIHSANVRTVNLEKSCVSVEWAEGGATKGKEIDFDDVAAINPELLQLLPLHPKDNLPLQENVTIQKQKRRSVNSKIPAPKESLRSRSTRMSTVSELRITAQENDMEVELPAAANSRKQFSVPPAPTRPSCPAVAEIPLRMVSEEMEEQVHSIRGSSSANPVNSVRRKSCLVKEVEKMKNKREEKKAQNSEMRMKRAQEYDSSFPNWEFARMIKEFRATLECHPLTMTDPIEEHRICVCVRKRPLNKQELAKKEIDVISIPSKCLLLVHEPKLKVDLTKYLENQAFCFDFAFDETASNEVVYRFTARPLVQTIFEGGKATCFAYGQTGSGKTHTMGGDLSGKAQNASKGIYAMASRDVFLLKNQPCYRKLGLEVYVTFFEIYNGKLFDLLNKKAKLRVLEDGKQQVQVVGLQEHLVNSADDVIKMIDMGSACRTSGQTFANSNSSRSHACFQIILRAKGRMHGKFSLVDLAGNERGADTSSADRQTRMEGAEINKSLLALKECIRALGQNKAHTPFRESKLTQVLRDSFIGENSRTCMIATISPGISSCEYTLNTLRYADRVKELSPHSGPSGEQLIQMETEEMEACSNGALIPGNLSKEEEELSSQMSSFNEAMTQIRELEEKAMEELKEIIQQGPDWLELSEMTEQPDYDLETFVNKAESALAQQAKHFSALRDVIKALRLAMQLEEQASRQISSKKRPQ | 100 | – | – |
| TEX101 (protein, UniProt Q9BY14 26-222, looked up) Testis-expressed protein 101: LYCQKGLSMTVEADPANMFNWTTEEVETCDKGALCQETILIIKAGTETAILATKGCIPEGEEAITIVQHSSPPGLIVTSYSNYCEDSFCNDKDSLSQFWEFSETTASTVSTTLHCPTCVALGTCFSAPSLPCPNGTTRCYQGKLEITGGGIESSVEVKGCTAMIGCRLMSGILAVGPMFVREACPHQLLTQPRKTEN | – | – | TSA Expression Rate (ER): 0% |
| PAGE1 (protein, UniProt O75459 1-146, looked up) P antigen family member 1: MGFLRRLIYRRRPMIYVESSEESSDEQPDEVESPTQSQDSTPAEEREDEGASAAQGQEPEADSQELVQPKTGCELGDGPDTKRVCLRNEEQMKLPAEGPEPEADSQEQVHPKTGCERGDGPDVQELGLPNPEEVKTPEEDEGQSQP | 0 | – | – |
